Data taken from patent US20160046928A1 (Bicycle, published 2016).
Starred links: 1 amine or outer side, 2 acyl side, 3 side chain; linkers in the order of their positions; H or OH if unused. Positions of bridges follow the written chain, without caps; N, C: chain ends. Non-standard residues stand in square brackets, D forms with d. TBMB = c1c(C[*:1])cc(C[*:3])cc1C[*:2]; NMeR = CN[C@@H](CCCNC(=N)N)C(=O)O

Biological target: kallikrein (UniProt P03952 20-638, limits assumed)
Test: cell-based or functional assay

Sequence of kallikrein (P03952 20-638 limits assumed): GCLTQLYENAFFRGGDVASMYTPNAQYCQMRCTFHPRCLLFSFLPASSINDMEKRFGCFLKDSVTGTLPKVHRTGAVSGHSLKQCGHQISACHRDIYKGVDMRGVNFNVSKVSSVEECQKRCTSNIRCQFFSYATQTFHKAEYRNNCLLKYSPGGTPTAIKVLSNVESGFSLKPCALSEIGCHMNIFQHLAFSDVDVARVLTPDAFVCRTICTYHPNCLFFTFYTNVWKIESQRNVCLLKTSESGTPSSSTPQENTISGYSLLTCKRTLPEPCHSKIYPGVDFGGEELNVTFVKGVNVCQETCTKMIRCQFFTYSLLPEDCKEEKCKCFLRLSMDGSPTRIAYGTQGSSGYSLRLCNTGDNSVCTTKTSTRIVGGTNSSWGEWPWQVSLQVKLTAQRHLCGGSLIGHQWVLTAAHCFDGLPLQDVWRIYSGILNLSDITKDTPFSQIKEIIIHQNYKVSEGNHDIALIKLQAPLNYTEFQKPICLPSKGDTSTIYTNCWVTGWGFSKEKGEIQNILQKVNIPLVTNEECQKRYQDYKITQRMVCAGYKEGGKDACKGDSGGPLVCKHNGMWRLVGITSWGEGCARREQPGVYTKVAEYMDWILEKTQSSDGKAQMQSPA

| Binder | inhibition of kallikrein activity (IC50, substrate Z-Phe-Arg-amc, fluorescence) |
| --- | --- |
| H-ACSDR[dF]RNCPADEALCG-OH (linker 2-9-16 via TBMB) [H-ACSDRfRNCPADEALCG-OH (D-Phe variant of PK15), TBMB conjugate] | 4 µM |
| H-ACSDRF[NMeR]NCPADEALCG-OH (linker 2-9-16 via TBMB) [H-ACSDRF-(NMeArg)-NCPADEALCG-OH (N-methyl-arginine variant of PK15), TBMB conjugate] | 3.1 µM |
| H-ACSDRFRNCPADEALCG-OH (linker 2-9-16 via TBMB; also: reduced peptide bond Y[CH2NH] between Phe6 and Arg7) [H-ACSDRF Y[CH2NH] RNCPADEALCG-OH (reduced peptide bond variant of PK15), TBMB conjugate] | 16.6 µM |
